Data reported in patent US10413588B2, “Probiotic function of human intelectin” (Wisconsin Alumni Research Foundation, priority 2015, dated 2019).
“And” between values parts separate entries of the source, which are not always exact repeats. Equal entries are not always repeated.

B1: hIntL-2: human intelectin-2, accession no. Q8WWU7, highly homologous to hIntL-1 (protein, listed as Homo sapiens)
chain: MLSMLRTMTRLCFLLFFSVATSGCSAAAASSLEMLSREFETCAFSFSSLPRSCKEIKERCHSAGDGLYFLRTKNGVVYQTFCDMTSGGGGWTLVASVHENDMRGKCTVGDRWSSQQGNKADYPEGDGNWANYNTFGSAEAATSDDYKNPGYYDIQAKDLGIWHVPNKSPMQHWRNSALLRYRTNTGFLQRLGHNLFGIYQKYPVKYRSGKCWNDNGPAIPVVYDFGDAKKTASYYSPYGQREFVAGFVQFRVFNNERAANALCAGIKVTGCNTEHHCIGGGGFFPQGKPRQCGDFSAFDWDGYGTHVKSSCSREITEAAVLLFYR
B2: Strep-mIntL-1: purified Strep-tagged mouse intelectin-1 (protein, UniProt O88310 19-298, looked up)
Intelectin-1a: AAEENLDTNRWGNSFFSSLPRSCKEIKQEHTKAQDGLYFLRTKNGVIYQTFCDMTTAGGGWTLVASVHENNMRGKCTVGDRWSSQQGNRADYPEGDGNWANYNTFGSAEAATSDDYKNPGYFDIQAENLGIWHVPNKSPLHNWRKSSLLRYRTFTGFLQHLGHNLFGLYKKYPVKYGEGKCWTDNGPALPVVYDFGDARKTASYYSPSGQREFTAGYVQFRVFNNERAASALCAGVRVTGCNTEHHCIGGGGFFPEGNPVQCGDFASFDWDGYGTHNGYS
modifications: Strep-tag

Assays:
[1] = test system: infant male fecal microbiome; test: Flow cytometry binding to infant fecal microbiome; parameters: species or system human; conditions: fecal sample, 15 μg/mL intelectin + 10 mM CaCl2
Procedure: Human fecal samples provide a non-invasive proxy of the intestinal microbiome of a patient. The inventors have isolated the intestinal microbiome from human fecal samples and analyzed it for hIntL-1 binding. The isolated microbiome was fixed using an aqueous solution of 1% formaldehyde. Cells were stained as described elsewhere, using either a solution including calcium ions (100 mM) or one containing the calcium ion chelator EDTA. Microbes were exposed to 20 mM HEPES (pH 7.2), 150 mM NaCl, 10 mM CaCl2, 15 μg/mL Strep-tagged-hIntL-1, 0.1% bovine serum albumin (BSA), 0.05% tween-20, 2 μg/mL StrepMAB Classic conjugated to Oyster 645 (IBA Lifesciences, cat. no.: 2-1555-050). […] Cells are analyzed consecutively on a BD LSRII flow cytometer using identical instrument setting. […]
Humans have two intelectins: hIntL-1 and human intelectin-2 (hIntL-2). […] To compare hIntL-1 and hIntL02, the inventors isolated the intestinal mirobiome from human feces and analyzed it for hIntL-2 binding. […] The samples were processed and analyzed as described above. Cells were analyzed consecutively on a BD LSRII flow cytometer using identical instrument setting. […]

[2] = Mouse intelectin-1 SPR on immobilized carbohydrates; format: binding; conditions: referenced to biotin channel
Excerpt: FIG. 23. Mouse intelectin-1 binding to immobilized carbohydrates. Purified Strep-mIntL-1 binding to immobilized carbohydrates monitored using SPR. […] Data are referenced to the biotin channel.

Molecule	fraction of cells of the infant microbiome bound by the intelectin [1]	carbohydrate binding on addition of EDTA [2]
B1	~32% and 32.2%	
B2		prevents carbohydrate binding
